Drawing on patent publication US20120141537A1, this text covers Day 14 Diabetes in B6-RIP-OVA mice given naive OT-1 spleen cells and peptide-pulsed RMAS cells, Day 21 Diabetes after day 15 challenge with TMEV-SIINFEKL and diabetes (>300 mg/dL blood glucose) after TMEV-L/OVA challenge on day 15 (FIG. 4) for one substance.

What all share (assay): cell-based or functional assay
The target of experiment [1] is K^bm3 complexed with Q7 peptide (SEQ ID NO:2) (mouse) (UniProt P01901).
Experiment [2] has as its target H-2K^b wild type complexed with SIINFEKL (SEQ ID NO:1) (mouse; chicken) (UniProt P01901).
The target in experiment [3] is H-2K^b wild type complexed with Q7 peptide SIINFEQL (SEQ ID NO:2) (mouse) (UniProt P01901).

Regarding OT-1 T cell receptor (TCR), the results for the Day 14 Diabetes in B6-RIP-OVA mice given naive OT-1 spleen cells and peptide-pulsed RMAS cells in experiment [1], in experiment [2] and in experiment [3] were 0 of 4 mice, 0 of 2 mice and 0 of 4 mice, respectively. Further, the Day 21 Diabetes after day 15 challenge with TMEV-SIINFEKL in experiment [1] was 3 of 4 mice; in experiment [2], 2 of 2 mice; in experiment [3], 0 of 4 mice. For the same substance, the diabetes (>300 mg/dL blood glucose) after TMEV-L/OVA challenge on day 15 (FIG. 4) in experiment [1] is 65 % of mice.
